The target in assay [1] is T1, bL4_C36 (HIV-1 gp41 HR2-derived biotinylated peptide C36) (HIV-1 HXB2, N-terminal biotin; C-terminal amide).
T1 construct: also called gp41 C36 target peptide; control peptide C36
T1 peptide: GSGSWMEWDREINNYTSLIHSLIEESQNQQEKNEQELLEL
Nature of the assay: ELISA, biotinylated peptide on streptavidin, anti-His-HRP detection, apparent KD.

Assay [2] deals with T2, Biotinylated N51 (HIV-1 gp41 HR1-derived peptide, residues 540 to 590 of HIV-1 HXB2) (HIV-1 HXB2, N-terminal biotin).
T2 construct: Immobilised through biotin on streptavidin; also called HIV-1 N51; biotinylated HIV-1 N51
Nature of the assay: SPR (BIAcore), biotinylated N51 on streptavidin chip, 1:1 Langmuir fit.

Assay [3] concerns the target T2, Biotinylated N51 (HIV-1 gp41 …). Nature of the assay: ELISA, biotinylated peptide on streptavidin, anti-His-HRP detection, sigmoid fit, apparent KD.
The target of assay [4] is T1, bL4_C36 (HIV-1 gp41 HR2-derived …). The assay is described as above.

B1: Alphabody 'scAB013_C2' (designed binder)
chain: MSIEEIQKQIAAIQKQIAAIQKQIYRMTGGSSGGSMQMYTIQIQILIIQAQIQQIQNQIELMTLGGSSGGMSIEEIQKQIAAIQKQIAAIQKQIYRMTPLEHHHHHH
notes: Single-chain Alphabody that mimics gp41 HR2 (grafted B-helix), made in E. coli; also called wild type scAB013_C2
As to B1, the Kd in assay [1] was more than 10000 nM. In addition, in assay [2], the Kd came to 2.07 nM, the koff was found to be 0.000209 s⁻¹ and the on-rate constant (kon) was 101000 M⁻¹ s⁻¹. Further, the Kd in assay [3] was found to be 18 nM.

B2: Alphabody 'scAB_Env03' (designed binder)
chain: MGHHHHHHHHHHSSGHIEGRHMSIEEIQKPIATIQEAIAWIQKKIYMMTGGSGGGSGGGSGGGSGMSIEEIQKQIAAIQKQIAAIQKQIYAMTGGSGGGSGGGSGGGSGMSIEEIQKQIVAIMEQIVAIVKQISAMTP
notes: The tag of the construct tested is not described; also called scAB013_Env03
Take B2: the Kd in assay [4] was 211 nM.

Source of the values: patent publication EP2661444B1 (Complix SA, dated 2015).
